Assay results: US7087717B2, “Sp110, a polypeptide component of the nuclear body” (The General Hospital Corporation, priority 2000, dated 2006)

B1: C-terminal portion: C-terminal portion of Sp110, containing the PHD and the bromodomain, fused to VP16 or GAL4 (protein)
chain: KRKNSDECEVCCQGGQLLCCGTCPRVFHEDCHIPPVEAKRMLWSCTFCRMKRSSGSQQCHHVSKTLERQMQPQDQLIRDYGEPFQEAMWLDLVKERLITEMYTVAWFVRDMRLMFRNHKTFYKASDFGQVGLDLEAEFEKDLKDVLGFHEANDGGFWTLP
modifications: left off: large carriers
notes: C-terminal portion of Sp110, containing the PHD and the bromodomain, fused to VP16 or GAL4
B2: N-terminal portion: N-terminal portion of Sp110, containing the Sp100-like region, fused to VP16 or GAL4 (protein)
chain: MFTMTRAMEEALFQHFMHQKLGIAYAIHKPFPFFEGLLDNSIITKRMYMESLEACRNLIPVSRVVHNILTQLERTFNLSLLVTLFSQINLREYPNLVTIYRSFKRVGASYERQSRDTPILLEAPTGLAEGSSLHTPLALPHHKPPQPSCSPCAPRVSEPGTSSQQSTEILSESPSPSDPVLPLPALIQEGRSTSVTNDKLTSKMNAEEDSEEMPSLLTSTVQVASDNLIP
modifications: left off: large carriers
notes: N-terminal portion of Sp110, containing the Sp100-like region, fused to VP16 or GAL4
B3: IFN-γ: interferon (protein, UniProt P01579 24-161, looked up)
Interferon gamma: QDPYVKEAENLKKYFNAGHSDVADNGTLFLGILKNWKEESDRKIMQSQIVSFYFKLFKNFKDDQSIQKSVETIKEDMNVKFFNSNKKKRDDFEKLTNYSVTDLNVQRKAIHELIQVMAELSPAAKTGKRKRSQMLFRG
B4: Sp110: novel 110 kDa polypeptide component of the nuclear body, 689 amino acids, SEQ ID NO:2 (protein, listed as Homo sapiens)
chain: MFTMTRAMEEALFQHFMHQKLGIAYAIHKPFPFFEGLLDNSIITKRMYMESLEACRNLIPVSRVVHNILTQLERTFNLSLLVTLFSQINLREYPNLVTIYRSFKRVGASYERQSRDTPILLEAPTGLAEGSSLHTPLALPHHKPPQPSCSPCAPRVSEPGTSSQQSTEILSESPSPSDPVLPLPALIQEGRSTSVTNDKLTSKMNAEEDSEEMPSLLTSTVQVASDNLIPQIRDKEDPQEMPHSPLGSMPEIRDNSPEPNDPEEPQEVSSTPSDKKGKKRKRCIWSTPKRRHKKKSLPRGTASSRHGIQKKLKRVDQVPQKKDDSTCNSTVETRAQKARTECARKSRSEEIIDGTSEMNEGKRSQKTPSTPRRVTQGAASPGHGIQEKLQVVDKVTQRKDDSTWNSEVMMRVQKARTKCARKSRSKEKKKEKDICSSSKRRFQKNIHRRGKPKSDTVDFHCSKLPVTCGEAKGILYKKKMKHGSSVKCIRNEDGTWLTPNEFEVEGKGRNAKNWKRNIRCEGTTLGELLKRKNSDECEVCCQGGQLLCCGTCPRVFHEDCHIPPVEAKRMLWSCTFCRMKRSSGSQQCHHVSKTLERQMQPQDQLIRDYGEPFQEAMWLDLVKERLITEMYTVAWFVRDMRLMFRNHKTFYKASDFGQVGLDLEAEFEKDLKDVLGFHEANDGGFWTLP
B5: Sp110m: mutant Sp110 protein in which two of the three LXXLL leucine residues were changed, one to valine and one to alanine (LXXVA) (protein)
chain: B4 chain

How the values were obtained:
[1] = tested on: CAT reporter plasmid containing five GAL4 binding sites and an SV40 enhancer region (pG5SV-BCAT); assay: GAL4 fusion / CAT reporter gene transcription assay in COS cells; format: cell-based
Text: To examine the potential effect of Sp110 on gene transcription, a eukaryotic expression plasmid encoding Sp110 fused to the DNA-binding domain of GAL4 (pBXG-Sp1110) was co-transfected with a CAT reporter plasmid containing five GAL4 binding sites and an SV40 enhancer region (pG5SV-BCAT) into COS cells.
To identify the portion of Sp110 that enhances reporter gene expression, DNA segments encoding fragments of Sp110 fused to GAL4 were expressed with a reporter gene in COS cells. […] The mechanism by which Sp110 enhances PPARα-mediated gene transcription can be investigated, as described below, by identifying proteins that interact with the activation domain and SAND domain.

[2] = tested on: CBP; assay: Mammalian two-hybrid assay with GAL4-CBP in COS cells; format: cell-based; conditions: VP16 fusions, compared with VP16 alone
Text: PPARα interacted with the N-terminal portion of CBP/p300 between amino acid residues 39 and 221. To determine whether Sp110 also interacts with CBP, the mammalian two-hybrid system was used as an assay. In this assay, the GAL4 DNA-binding domain (GAL4) fused to CBP (GAL4-CBP) and a luciferase reporter gene containing GAL4 response elements were expressed in COS cells with either Sp110 fused to the herpes simplex virus VP16 activation domain (VP16-Sp110) or VP16 alone. […] Thus, Sp110 interacts, either directly or indirectly, with CBP. The site of functional interaction between Sp110 and CBP was mapped more specifically to amino acid residues 271–720 of CBP. The Sp110-CBP functional interaction domain is therefore distinct from the PPARα-CBP interaction domain.
To identify the portion of Sp110 that functionally interacts with CBP, the N-terminal or C-terminal portions of Sp110 were fused to VP16 and expressed in COS cells together with GAL4CBP and a reporter gene. […] As described below, studies can be carried out to further delineate the domains that mediate functional interaction between Sp110 and CBP and to test whether Sp110 interacts with CBP directly.

[3] = tested on: HL60 cells; assay: Sp110 mRNA level by RNA blot after IFN-γ treatment; format: cell-based, human; conditions: 200 units/ml, 48 hours
Procedure: To investigate the expression of Sp110 in cells of the monocyte/granulocyte lineage, RNA was prepared from the myeloid precursor cell lines HL60 and NB4 (HL60 cells are available from the American Type Culture Collection, Manassas, Va.). RNA was extracted from these cell lines using the guanidinium isothiocyanate-cesium chloride method (Sambrook et al., Cold Spring Harbor Laboratory, Cold Spring Harbor, N.Y., 1989). The HL60 cells were maintained in RPMI supplemented with 10% fetal calf serum, L-glutamine (2 mM), penicillin (200 units/ml), and streptomycin (200 mg/ml). RNA was fractionated in formaldehyde-agarose gels (5 μg/lane) and equal loading of RNA was confirmed by staining 28S and 18S ribosomal RNA with ethidium bromide. RNA was transferred to nylon membranes and the membranes were hybridized with the radiolabeled XbaI restriction fragment of the Sp110 cDNA or the EcoRI/BamHI restriction fragment of the cDNA encoding human Sp100 (Bloch et al., J. Biol. Chem. 46:29198–29204, 1996). Membranes were washed and analyzed by autoradiography. Low levels of Sp110 mRNA were detected in both NB4 cells and HL60 cells.
To examine the effect of cellular differentiation on Sp110 mRNA, NB4 cells were treated for 48 hours with all trans retinoic acid (ATRA) (1 μM). […] To examine the effect of IFN-γ treatment on Sp110 mRNA levels, HL60 cells were treated with IFN-γ (200 units/ml) for 48 hours.

[4] = tested on: RARα response element; assay: RAR transcriptional co-activation reporter assay; format: cell-based; conditions: for signal transduction through RARα / expression of the reporter gene: expressed with RARα
Procedure: Experiments were also performed to determine whether Sp110 could function as a retinoic acid receptor (RAR) transcriptional co-activator. […] The extent of reporter gene activation by Sp110 was similar to that induced by the nuclear body component PML.

[5] = tested on: PPARα; assay: PPARα co-activation reporter assay (PPRE) in COS cells; format: cell-based; conditions: COS cells co-transfected with PPARα; compared with PPARα expressed alone
Text: Sp110 also acted as a co-activator of PPARα. […] Sp110 may interact with nuclear hormone receptors via an LXXLL domain. To determine whether Sp110 interacts with PPARα via the LULL domain, oligonucleotides and PCR were used to prepare a mutant Sp110 protein (Sp110m) in which two of the three leucine residues were changed, one to valine and one to alanine (LXXVA).

[6] = tested on: PPARγ receptor; assay: PPARγ signal transduction reporter assay; format: cell-based

Molecule | reporter gene expression by fragments of Sp110 fused to GAL4 [1] | GAL4-CBP-induced luciferase reporter gene activity [2] | signal transduction through RARα / expression of the reporter gene [4] | agonist-induced expression of the PPRE reporter gene / activation of the PPARα receptor [5] | signal transduction through the PPARγ receptor [6] | also measured
B1 | Neither the N-terminal (Sp100-like domain), nor the C-terminal (PHD/bromodomain) portions of Sp110 increased expression of the reporter gene | enhanced | – | – | – | –
B2 | Neither the N-terminal (Sp100-like domain), nor the C-terminal (PHD/bromodomain) portions of Sp110 increased expression of the reporter gene | did not | – | – | – | –
B3 | – | – | – | – | – | Sp110 mRNA level [3]: marked increase
B4 | – | – | enhanced signal transduction | markedly enhanced | enhanced signal transduction | ATRA-induced expression of the reporter gene ([4]; COS cells, reporter with three copies of the RARα response element): significantly enhanced
B5 | – | – | also enhanced expression of the reporter gene | less than wild-type Sp110 | enhanced signal transduction | –
